To fix the notation:
B1: FIXa-Y155F/K228N/R318Y/R338E/R403E/E410N (protein)
chain 1: YNSGKLEEFVQGNLERECMEEKCSFEEAREVFENTERTTEFWKQYVDGDQCESNPCLNGGSCKDDINSYECWCPFGFEGKNCELDVTCNIKNGRCEQFCKNSADNKVVCSCTEGYRLAENQKSCEPAVPFPCGRVSVSQTSKLTR
chain 2: VVGGEDAKPGQFPWQVVLNGKVDAFCGGSIVNEKWIVTAAHCVETGVNITVVAGEHNIEETEHTEQKRNVIRIIPHHNYNAAINKYNHDIALLELDEPLVLNSYVTPICIADKEYTNIFLKFGSGYVSGWGRVFHKGYSALVLQYLRVPLVDRATCLESTKFTIYNNMFCAGFHEGGRDSCQGDSGGPHVTEVEGTSFLTGIISWGEECAMKGKYGIYTKVSEYVNWIKNKTKLT
B2: FIXa-R318Y/R338E/R403E/E410N/T412A (protein)
chain 1: B1 chain 1
chain 2: B1 chain 2 with N48K, T232A
B3: FIXa-Y155F/K247N/N249S/R318Y/R338E/E410N (protein)
chain 1: B1 chain 1
chain 2: B1 chain 2 with N48K, K67N, N69S, E223R
B4: FIXa-A103N/N105S/K247N/N249S/R318Y/R338E/R403E/E410N (protein)
chain 1: B1 chain 1 with A103N, N105S
chain 2: B1 chain 2 with N48K, K67N, N69S
B5: FIXa-Y155F/K247N/N249S/R318Y/R338E/R403E/E410N (protein)
chain 1: B1 chain 1
chain 2: B1 chain 2 with N48K, K67N, N69S
B6: FIXa-K247N/N249S/R318Y/R338E/R403E/E410N (protein)
chain 1: B1 chain 1
chain 2: B1 chain 2 with N48K, K67N, N69S
B7: FIXa-I251S/R318Y/R338E/R403E/E410N (protein)
chain 1: B1 chain 1
chain 2: B1 chain 2 with N48K, I71S
B8: FIXa-Y155F/I251S/R318Y/R338E/R403E/E410N (protein)
chain 1: B1 chain 1
chain 2: B1 chain 2 with N48K, I71S
B9: FIXa-K247N/N249S/R318Y/R338E/E410N (protein)
chain 1: B1 chain 1
chain 2: B1 chain 2 with N48K, K67N, N69S, E223R
B10: FIXa-R318Y/R338E/R403E/E410S (protein)
chain 1: B1 chain 1
chain 2: B1 chain 2 with N48K, N230S
B11: FIXa-R318Y/R338E/R403E/E410N/T412V (protein)
chain 1: B1 chain 1
chain 2: B1 chain 2 with N48K, T232V
B12: FIXa-I251S/R318Y/R338E/E410N (protein)
chain 1: B1 chain 1
chain 2: B1 chain 2 with N48K, I71S, E223R
B13: FIXa-D104N/K106S/K247N/N249S/R318Y/R338E/R403E/E410N (protein)
chain 1: B1 chain 1 with D104N, K106S
chain 2: B1 chain 2 with N48K, K67N, N69S
B14: FIXa-D85N/K228N/R318Y/R338E/R403E/E410N (protein)
chain 1: B1 chain 1 with D85N
chain 2: B1 chain 2
B15: FIXa-D104N/K106S/I251S/R318Y/R338E/R403E/E410N (protein)
chain 1: B1 chain 1 with D104N, K106S
chain 2: B1 chain 2 with N48K, I71S
B16: FIXa-K228N/K247N/N249S/R318Y/R338E/R403E/E410N (protein)
chain 1: B1 chain 1
chain 2: B1 chain 2 with K67N, N69S
B17: FIXa D104N/K106S/Y155F/K228N/K247N/N249S (protein)
chain 1: B1 chain 1 with D104N, K106S
chain 2: B1 chain 2 with K67N, N69S, Y138R, E158R, E223R, N230E
B18: FIXa K228N/R318Y/R338E/R403E/E410N (protein)
chain 1: B1 chain 1
chain 2: B1 chain 2
B19: FIXa I251S/R318Y/R338E/E410N (protein)
chain 1: B1 chain 1
chain 2: B1 chain 2 with N48K, I71S, E223R
B20: FIXa Y155F/K247N/N249S/R318Y/R338E/E410N (protein)
chain 1: B1 chain 1
chain 2: B1 chain 2 with N48K, K67N, N69S, E223R
B21: FIXa D104N/K106S/I251S/R318Y/R338E/E410N (protein)
chain 1: B1 chain 1 with D104N, K106S
chain 2: B1 chain 2 with N48K, I71S, E223R
B22: FIXa I251S/R318Y/R338E/R403E/E410N (protein)
chain 1: B1 chain 1
chain 2: B1 chain 2 with N48K, I71S
B23: FIXa K247N/N249S/R318Y/R338E/E410N (protein)
chain 1: B1 chain 1
chain 2: B1 chain 2 with N48K, K67N, N69S, E223R
B24: FIXa D104N/K106S/K247N/N249S/R318Y/R338E/R403E/E410N (protein)
chain 1: B1 chain 1 with D104N, K106S
chain 2: B1 chain 2 with N48K, K67N, N69S
B25: FIXa Y155F/I251S/R318Y/R338E/R403E/E410N (protein)
chain 1: B1 chain 1
chain 2: B1 chain 2 with N48K, I71S
B26: FIXa D85N/K228N/R318Y/R338E/R403E/E410N (protein)
chain 1: B1 chain 1 with D85N
chain 2: B1 chain 2
B27: FIXa Y155F/K228N/R318Y/R338E/R403E/E410N (protein)
chain 1: B1 chain 1
chain 2: B1 chain 2
B28: FIXa D104N/K106S/I251S/R318Y/R338E/R403E/E410N (protein)
chain 1: B1 chain 1 with D104N, K106S
chain 2: B1 chain 2 with N48K, I71S
B29: FIXa Y155F/K247N/N249S/R318Y/R338E/R403E/E410N (protein)
chain 1: B1 chain 1
chain 2: B1 chain 2 with N48K, K67N, N69S
B30: FIXa K228N/K247N/N249S (protein)
chain 1: B1 chain 1
chain 2: B1 chain 2 with K67N, N69S, Y138R, E158R, E223R, N230E
B31: FIXa R318Y/R338E/R403E/E410S (protein)
chain 1: B1 chain 1
chain 2: B1 chain 2 with N48K, N230S
B32: FIXa K247N/N249S/R318Y/R338E/R403E/E410N (protein)
chain 1: B1 chain 1
chain 2: B1 chain 2 with N48K, K67N, N69S
B33: FIXa Y259F/K265T/Y345T (protein)
chain 1: B1 chain 1
chain 2: B1 chain 2 with N48K, Y79F, K85T, Y138R, E158R, Y165T, E223R, N230E
B34: FIXa R318Y/R338E/E410S (protein)
chain 1: B1 chain 1
chain 2: B1 chain 2 with N48K, E223R, N230S
B35: FIXa A103N/N105S/K247N/N249S/R318Y/R338E/R403E/E410N (protein)
chain 1: B1 chain 1 with A103N, N105S
chain 2: B1 chain 2 with N48K, K67N, N69S

Where a chain is given by its changes, count along the chain named. In names and notes the source's numbering stands.

As usually defined, the kcat/KM is the turnover number divided by the Michaelis constant.

Factor X (FX), P00742, sequence (P00742 whole entry, looked up): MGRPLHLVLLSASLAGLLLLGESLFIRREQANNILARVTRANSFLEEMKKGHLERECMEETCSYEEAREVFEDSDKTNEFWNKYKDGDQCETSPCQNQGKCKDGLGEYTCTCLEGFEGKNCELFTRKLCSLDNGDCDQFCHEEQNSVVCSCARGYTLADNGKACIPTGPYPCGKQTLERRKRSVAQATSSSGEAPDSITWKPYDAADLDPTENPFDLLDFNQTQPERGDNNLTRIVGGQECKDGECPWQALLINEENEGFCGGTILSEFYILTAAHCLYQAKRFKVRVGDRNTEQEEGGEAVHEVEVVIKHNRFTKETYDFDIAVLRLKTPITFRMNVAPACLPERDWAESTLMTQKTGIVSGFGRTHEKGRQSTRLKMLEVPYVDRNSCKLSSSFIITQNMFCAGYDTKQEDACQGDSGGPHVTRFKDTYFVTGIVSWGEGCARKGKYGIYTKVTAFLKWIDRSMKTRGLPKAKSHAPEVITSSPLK

For one data set, the target named is plasma purified human AT-III (antithrombin III), in complex with full-length unfractionated heparin (AT-III/UFH).
For the protein B1, the K0.5-mut/K0.5-wt (against Catalyst Biosciences WT FIXa) is more than 517.

B2: the K0.5-mut/K0.5-wt (against Catalyst Biosciences WT FIXa) was more than 517.

In turn, B3 showed a K0.5-mut/K0.5-wt (against Catalyst Biosciences WT FIXa) of 200.

B4: the K0.5-mut/K0.5-wt (against Catalyst Biosciences WT FIXa) came out at 129.

In the case of B5, the K0.5-mut/K0.5-wt (against Catalyst Biosciences WT FIXa) is more than 517.

In turn, B6 came in with a K0.5-mut/K0.5-wt (against Catalyst Biosciences WT FIXa) of 418.

As to B7, the K0.5-mut/K0.5-wt (against Catalyst Biosciences WT FIXa) is more than 517.

For B8, the K0.5-mut/K0.5-wt (against Catalyst Biosciences WT FIXa) was more than 517.

As to B9, the K0.5-mut/K0.5-wt (against Catalyst Biosciences WT FIXa) came to 78.3.

B10: the K0.5-mut/K0.5-wt (against Catalyst Biosciences WT FIXa) was more than 517.

The protein B11 returned a K0.5-mut/K0.5-wt (against Catalyst Biosciences WT FIXa) of more than 517.

B12 returned a K0.5-mut/K0.5-wt (against Catalyst Biosciences WT FIXa) of 303.

B13 displayed a K0.5-mut/K0.5-wt (against Catalyst Biosciences WT FIXa) of more than 517.

Protein B14 gave a K0.5-mut/K0.5-wt (against Catalyst Biosciences WT FIXa) of more than 517.

B15: the K0.5-mut/K0.5-wt (against Catalyst Biosciences WT FIXa) was more than 517.

In the case of B16, the K0.5-mut/K0.5-wt (against Catalyst Biosciences WT FIXa) is more than 517.

For the next data set, the target named is plasma purified human antithrombin III (AT-III) in complex with full-length unfractionated heparin (UFH).
B17 yielded a K0.5-mut/K0.5-wt of 1.6 fold.

B18 gave a K0.5-mut/K0.5-wt of more than 517 fold.

Take B19: the K0.5-mut/K0.5-wt came out at 303 fold.

Protein B20 had a K0.5-mut/K0.5-wt of 200 fold.

As for B21, the K0.5-mut/K0.5-wt worked out at 464 fold.

In turn, B22 returned a K0.5-mut/K0.5-wt of more than 517 fold.

Regarding B23, the K0.5-mut/K0.5-wt came out at 78.3 fold.

Protein B24 displayed a K0.5-mut/K0.5-wt of more than 517 fold.

The protein B25 gave a K0.5-mut/K0.5-wt of more than 517 fold.

On to B26, for which the K0.5-mut/K0.5-wt was more than 517 fold.

Turning to B27, the K0.5-mut/K0.5-wt is more than 517 fold.

B28 returned a K0.5-mut/K0.5-wt of more than 517 fold.

Take B29: the K0.5-mut/K0.5-wt is more than 517 fold.

Regarding B30, the K0.5-mut/K0.5-wt worked out at 4.4 fold.

With B31, the K0.5-mut/K0.5-wt is more than 517 fold.

Protein B32 came in with a K0.5-mut/K0.5-wt of 418 fold.

Protein B33 displayed a K0.5-mut/K0.5-wt of 0.3 fold.

B34 came in with a K0.5-mut/K0.5-wt of 279 fold.

For the protein B35, the K0.5-mut/K0.5-wt was determined as 129 fold.

The target in the next data set is Factor X, P00742.
Factor X, P00742, sequence (P00742 whole entry, looked up): as above
As to B1, the kcat of FX activation by FIXa (Xase complex with FVIIIa, PC/PS vesicles, Ca2+) is 9.7 s⁻¹.

For the protein B2, the kcat of FX activation by FIXa (Xase complex with FVIIIa, PC/PS vesicles, Ca2+) amounted to 8.4 s⁻¹.

For B3, the kcat of FX activation by FIXa (Xase complex with FVIIIa, PC/PS vesicles, Ca2+) was 4.3 s⁻¹.

For the protein B4, the kcat of FX activation by FIXa (Xase complex with FVIIIa, PC/PS vesicles, Ca2+) was 4.1 s⁻¹.

As to B5, the kcat of FX activation by FIXa (Xase complex with FVIIIa, PC/PS vesicles, Ca2+) is 6.5 s⁻¹.

As to B6, the kcat of FX activation by FIXa (Xase complex with FVIIIa, PC/PS vesicles, Ca2+) amounted to 5.8 s⁻¹.

For the protein B7, the kcat of FX activation by FIXa (Xase complex with FVIIIa, PC/PS vesicles, Ca2+) stood at 4.8 s⁻¹.

Take B8: the kcat of FX activation by FIXa (Xase complex with FVIIIa, PC/PS vesicles, Ca2+) was 7.2 s⁻¹.

In the case of B9, the kcat of FX activation by FIXa (Xase complex with FVIIIa, PC/PS vesicles, Ca2+) worked out at 3.8 s⁻¹.

Turning to B10, the kcat of FX activation by FIXa (Xase complex with FVIIIa, PC/PS vesicles, Ca2+) amounted to 5.8 s⁻¹.

In the case of B11, the kcat of FX activation by FIXa (Xase complex with FVIIIa, PC/PS vesicles, Ca2+) was determined as 7.9 s⁻¹.

For B12, the kcat of FX activation by FIXa (Xase complex with FVIIIa, PC/PS vesicles, Ca2+) is 6.2 s⁻¹.

As for B13, the kcat of FX activation by FIXa (Xase complex with FVIIIa, PC/PS vesicles, Ca2+) was 5.2 s⁻¹.

Regarding B14, the kcat of FX activation by FIXa (Xase complex with FVIIIa, PC/PS vesicles, Ca2+) came to 6 s⁻¹.

With B15, the kcat of FX activation by FIXa (Xase complex with FVIIIa, PC/PS vesicles, Ca2+) is 5.5 s⁻¹.

With B16, the kcat of FX activation by FIXa (Xase complex with FVIIIa, PC/PS vesicles, Ca2+) stood at 6.1 s⁻¹.

Another data set has as its target Factor X (FX), P00742.
As for B2, the kcat/KM was 2.6e+08 M⁻¹ s⁻¹.

B3: the kcat/KM stood at 3.3e+08 M⁻¹ s⁻¹.

With B4, the kcat/KM is 1.5e+08 M⁻¹ s⁻¹.

For B5, the kcat/KM was 1.9e+08 M⁻¹ s⁻¹.

B10: the kcat/KM is 2.1e+08 M⁻¹ s⁻¹.

With B11, the kcat/KM came out at 1.9e+08 M⁻¹ s⁻¹.

For the protein B12, the catalytic efficiency (kcat/KM) was 3.9e+08 M⁻¹ s⁻¹.

The values are drawn from patent US20210230570.
